Laboratory results: patent publication US20240336672A1 (INSTITUT PASTEUR, published 2024)

How the values were obtained:
Assay in all cases: cell-based or functional assay
[1] = target: SARS-CoV-2 spike, Alpha variant (B.1.1.7), on virus or pseudotyped particles (SARS-CoV-2)
[2] = target: SARS-CoV-2 spike, Omicron BA.2 variant, on virus (SARS-CoV-2)
[3] = target: SARS-CoV-2 spike, Delta+ variant, on pseudotyped particles (SARS-CoV-2)
[4] = target: SARS-CoV-2 spike, Gamma variant (P.1), on virus or pseudotyped particles (SARS-CoV-2)
[5] = target: T1, SARS-CoV-2 spike, Delta variant (B.1.617.2), on virus or pseudotyped particles (SARS-CoV-2)
[6] = target: T1, SARS-CoV-2 spike, Delta variant …; remark: listed apart in the source

Binder | Pseudoneutralization IC50 [1] [ng/mL] | Pseudoneutralization IC90 [1] [ng/mL] | S-Fuse neutralization IC50 [1] [ng/mL] | S-Fuse neutralization IC90 [1] [ng/mL] | S-Fuse neutralization IC50 [2] [ng/mL] | S-Fuse neutralization IC90 [2] [ng/mL] | Pseudoneutralization IC50 [3] [ng/mL] | Pseudoneutralization IC90 [3] [ng/mL] | Pseudoneutralization IC50 [4] [ng/mL] | Pseudoneutralization IC90 [4] [ng/mL] | S-Fuse neutralization IC90 [4] [ng/mL] | IC50, S-Fuse neutralisation [5] [ng/mL] | S-Fuse neutralization IC50 [4] [ng/mL] | S-Fuse IC50 [6] [ng/mL]
Cv2.3194 (recombinant human IgG1) (antibody, V domains shown) VH: EVQLVESGGGLIQPGGSLRLSCAASGITVTSNYMSWVRQAPGKGLEWVSVIYPGGSTFYADSVKGRFTISRDNSKNTLYLQMNSLRAEDTAVYYCARDLVVYGMDVWGQGTTVTVSS VL: EIVLTQSPGTLSLSPGERATLSCRASQSVSSSYLAWYQQKPGQAPRLLIYGASSRATGIPGRFSGSGSGTDFTLTISRLEPEDFAIYYCQQGVTFGGGTKVEIKR | 34.7 | 132 | 4.3 | 5.4 | 40.5 | 582 | 20.6 | 89 | 9.9 | 56.1 | 5.6 | 7.4 | – | –
Cv2.1169 (recombinant human IgG1) (antibody, also called Cv2.1169 IgG) heavy: QVQLVQSGPEVKKPGTSVKVSCKASGFTFTTSAVQWVRQARGQRLEWIGWIVVGSGNTNYAQKFQERVTITRDMSTTTAYMELSSLRSEDTAVYYCAAPYCSGGTCLDGFDIWGQGTMVTVSSASTKGPSVFPLAPSSKSTSGGTAALGCLVKDYFPEPVTVSWNSGALTSGVHTFPAVLQSSGLYSLSSVVTVPSSSLGTQTYICNVNHKPSNTKVDKKVEPKSCDKTHTCPPCPAPELLGGPSVFLFPPKPKDTLMISRTPEVTCVVVDVSHEDPEVKFNWYVDGVEVHNAKTKPREEQYNSTYRVVSVLTVLHQDWLNGKEYKCKVSNKALPAPIEKTISKAKQPREPQVYTLPPSRDELTKNQVSLTCLVKGFYPSDIAVEWESNGQPENNYKTTPPVLDSDGSFFLYSKLTVDKSRWQQGNVFSCSVMHEALHNHYTQKSLSLSPGK light: not shown | 5.5 | 24 | 1.6 | 4 | 332 | 9690 | 3.6 | 14.9 | 9.6 | 29.2 | 8.6 | 2.5 | 1.6 | 4.46
